Measured values published in IntAct's records for PubMed 35512704.

B1: Speckle-type POZ protein (Homo sapiens), O43791 (parent)
chain: MSRVPSPPPPAEMSSGPVAESWCYTQIKVVKFSYMWTINNFSFCREEMGEVIKSSTFSSGANDKLKWCLRVNPKGLDEESKDYLSLYLLLVSCPKSEVRAKFKFSILNAKGEETKAMESQRAYRFVQGKDWGFKKFIRRDFLLDEANGLLPDDKLTLFCEVSVVQDSVNISGQNTMNMVKVPECRLADELGGLWENSRFTDCCLCVAGQEFQAHKAILAARSPVFSAMFEHEMEESKKNRVEINDVEPEVFKEMMCFIYTGKAPNLDKMADDLLAAADKYALERLKVMCEDALCSNLSVENAAEILILADLHSADQLKTQAVDFINYHASDVLETSGWKSMVVSHPHLVAEAYRSLASAQCPFLGPPRKRLKQS
partner: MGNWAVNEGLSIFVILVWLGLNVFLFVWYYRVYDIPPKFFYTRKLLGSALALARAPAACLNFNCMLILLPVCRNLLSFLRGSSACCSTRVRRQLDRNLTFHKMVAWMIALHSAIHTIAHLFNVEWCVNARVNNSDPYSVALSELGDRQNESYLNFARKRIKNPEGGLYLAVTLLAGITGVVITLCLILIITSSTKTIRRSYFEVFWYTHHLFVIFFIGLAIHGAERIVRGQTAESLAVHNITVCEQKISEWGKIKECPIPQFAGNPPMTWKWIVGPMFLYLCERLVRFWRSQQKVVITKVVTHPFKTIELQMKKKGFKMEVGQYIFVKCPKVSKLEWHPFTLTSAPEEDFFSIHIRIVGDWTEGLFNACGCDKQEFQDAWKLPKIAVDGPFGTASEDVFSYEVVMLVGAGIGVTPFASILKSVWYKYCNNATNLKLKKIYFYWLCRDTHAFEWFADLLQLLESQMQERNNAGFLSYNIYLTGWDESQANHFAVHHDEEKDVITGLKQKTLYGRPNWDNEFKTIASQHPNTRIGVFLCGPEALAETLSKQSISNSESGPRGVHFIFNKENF
B2: Speckle-type POZ protein (Homo sapiens), O43791 (parent)
chain: B1 chain
partner: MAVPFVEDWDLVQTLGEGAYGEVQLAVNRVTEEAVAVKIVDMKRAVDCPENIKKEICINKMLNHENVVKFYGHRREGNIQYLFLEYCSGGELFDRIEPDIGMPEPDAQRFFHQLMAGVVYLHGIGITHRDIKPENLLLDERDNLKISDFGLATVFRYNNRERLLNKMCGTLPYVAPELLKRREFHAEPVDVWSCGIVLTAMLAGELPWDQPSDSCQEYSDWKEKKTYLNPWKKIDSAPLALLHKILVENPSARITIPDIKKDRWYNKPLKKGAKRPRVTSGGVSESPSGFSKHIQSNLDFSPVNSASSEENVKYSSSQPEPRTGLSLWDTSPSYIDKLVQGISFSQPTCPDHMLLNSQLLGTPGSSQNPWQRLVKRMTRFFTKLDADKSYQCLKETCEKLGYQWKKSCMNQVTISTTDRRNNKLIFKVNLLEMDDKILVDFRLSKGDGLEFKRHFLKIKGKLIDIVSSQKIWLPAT
B3: Speckle-type POZ protein (Homo sapiens), O43791 (parent)
chain: B1 chain
partner: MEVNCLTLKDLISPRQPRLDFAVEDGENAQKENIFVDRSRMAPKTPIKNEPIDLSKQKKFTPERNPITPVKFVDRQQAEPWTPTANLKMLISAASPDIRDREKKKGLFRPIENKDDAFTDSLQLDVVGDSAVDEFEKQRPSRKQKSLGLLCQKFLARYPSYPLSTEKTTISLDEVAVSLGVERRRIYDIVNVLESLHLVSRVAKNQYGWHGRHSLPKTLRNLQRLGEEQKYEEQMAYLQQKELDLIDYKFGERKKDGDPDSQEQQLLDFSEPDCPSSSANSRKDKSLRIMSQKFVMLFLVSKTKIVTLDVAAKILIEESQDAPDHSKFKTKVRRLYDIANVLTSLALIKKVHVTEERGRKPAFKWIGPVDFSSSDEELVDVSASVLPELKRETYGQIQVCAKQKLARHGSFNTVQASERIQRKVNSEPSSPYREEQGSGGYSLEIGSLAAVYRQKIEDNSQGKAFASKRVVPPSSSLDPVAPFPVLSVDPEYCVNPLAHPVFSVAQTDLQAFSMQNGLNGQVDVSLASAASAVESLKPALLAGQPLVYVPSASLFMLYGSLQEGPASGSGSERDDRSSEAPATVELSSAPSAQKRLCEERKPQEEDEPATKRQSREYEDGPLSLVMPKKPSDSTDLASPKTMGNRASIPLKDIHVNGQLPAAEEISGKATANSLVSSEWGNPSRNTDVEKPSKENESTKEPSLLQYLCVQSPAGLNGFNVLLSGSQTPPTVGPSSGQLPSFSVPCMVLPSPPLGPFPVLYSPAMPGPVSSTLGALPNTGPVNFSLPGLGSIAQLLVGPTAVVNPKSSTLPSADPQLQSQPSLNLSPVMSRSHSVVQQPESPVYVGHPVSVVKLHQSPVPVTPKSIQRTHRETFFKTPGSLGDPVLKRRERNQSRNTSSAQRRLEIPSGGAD

Variants of: B1
Details: with cy24b_human CYBB

Row | Variant | effect of a mutation on the interaction
1 | MSRVPSPPPPAEMSSGPVAESWCYTQIKVVKFSYMWTINNFSFCREEMGEVIKSSTFSSGANDKLKWCLRVNPKGLDEESKDYLSLCLLLVSCPKSEVRAKFKFSILNAKGEETKAMESQRAYRFVQGKDWGFKKFIRRDFLLDEANGLLPDDKLTLFCEVSVVQDSVNISGQNTMNMVKVPECRLADELGGLWENSRFTDCCLCVAGQEFQAHKAILAARSPVFSAMFEHEMEESKKNRVEINDVEPEVFKEMMCFIYTGKAPNLDKMADDLLAAADKYALERLKVMCEDALCSNLSVENAAEILILADLHSADQLKTQAVDFINYHASDVLETSGWKSMVVSHPHLVAEAYRSLASAQCPFLGPPRKRLKQS [Y87C] | with no effect

Variants of: B1
Details: with cy24b_human CYBB
Remark: another data set of the same source

Row | Variant | effect of a mutation on the interaction
2 | MSRVPSPPPPAEMSSGPVAESWCYTQIKVVKFSYMWTINNFSFCREEMGEVIKSSTFSSGANDKLKWCLRVNPKGLDEESKDYLSLYLLLVSCPKSEVRAKCKFSILNAKGEETKAMESQRAYRFVQGKDWGFKKFIRRDFLLDEANGLLPDDKLTLFCEVSVVQDSVNISGQNTMNMVKVPECRLADELGGLWENSRFTDCCLCVAGQEFQAHKAILAARSPVFSAMFEHEMEESKKNRVEINDVEPEVFKEMMCFIYTGKAPNLDKMADDLLAAADKYALERLKVMCEDALCSNLSVENAAEILILADLHSADQLKTQAVDFINYHASDVLETSGWKSMVVSHPHLVAEAYRSLASAQCPFLGPPRKRLKQS [F102C] | with no effect

Variants of: B1
Details: with cy24b_human CYBB
Remark: another data set of the same source

Row | Variant | effect of a mutation on the interaction
3 | MSRVPSPPPPAEMSSGPVAESWCYTQIKVVKFSYMWTINNFSFCREEMGEVIKSSTFSSGANDKLKWCLRVNPKGLDEESKDYLSLYLLLVSCPKSEVRAKFKFSILNAKGEETKAMESQRAYRFVQGKDWGVKKFIRRDFLLDEANGLLPDDKLTLFCEVSVVQDSVNISGQNTMNMVKVPECRLADELGGLWENSRFTDCCLCVAGQEFQAHKAILAARSPVFSAMFEHEMEESKKNRVEINDVEPEVFKEMMCFIYTGKAPNLDKMADDLLAAADKYALERLKVMCEDALCSNLSVENAAEILILADLHSADQLKTQAVDFINYHASDVLETSGWKSMVVSHPHLVAEAYRSLASAQCPFLGPPRKRLKQS [F133V] | with no effect

Variants of: B1
Details: with cy24b_human CYBB
Remark: another data set of the same source

Row | Variant | effect of a mutation on the interaction
4 | MSRVPSPPPPAEMSSGPVAESWCYTQIKVVKFSYMWTINNFSFCREEMGEVIKSSTFSSGANDKLKWCLRVNPKGLDEESKDYLSLYLLLVSCPKSEVRAKFKFSILNAKGEETKAMESQRAYRFVQGKDWGLKKFIRRDFLLDEANGLLPDDKLTLFCEVSVVQDSVNISGQNTMNMVKVPECRLADELGGLWENSRFTDCCLCVAGQEFQAHKAILAARSPVFSAMFEHEMEESKKNRVEINDVEPEVFKEMMCFIYTGKAPNLDKMADDLLAAADKYALERLKVMCEDALCSNLSVENAAEILILADLHSADQLKTQAVDFINYHASDVLETSGWKSMVVSHPHLVAEAYRSLASAQCPFLGPPRKRLKQS [F133L] | with no effect

Variants of: B2
Details: with chk1_human CHEK1, O14757

Row | Variant | effect of a mutation on the interaction
5 | MSRVPSPPPPAEMSSGPVAESWCYTQIKVVKFSYMWTINNFSFCREEMGEVIKSSTFSSGANDKLKWCLRVNPKGLDEESKDYLSLYLLLVSCPKSEVRAKFKFSILNAKGEETKAMESQRAYRFVQGKDWGVKKFIRRDFLLDEANGLLPDDKLTLFCEVSVVQDSVNISGQNTMNMVKVPECRLADELGGLWENSRFTDCCLCVAGQEFQAHKAILAARSPVFSAMFEHEMEESKKNRVEINDVEPEVFKEMMCFIYTGKAPNLDKMADDLLAAADKYALERLKVMCEDALCSNLSVENAAEILILADLHSADQLKTQAVDFINYHASDVLETSGWKSMVVSHPHLVAEAYRSLASAQCPFLGPPRKRLKQS [F133V] | with no effect

Variants of: B2
Details: with chk1_human CHEK1, O14757
Remark: another data set of the same source

Row | Variant | effect of a mutation on the interaction
6 | MSRVPSPPPPAEMSSGPVAESWCYTQIKVVKFSYMWTINNFSFCREEMGEVIKSSTFSSGANDKLKWCLRVNPKGLDEESKDYLSLCLLLVSCPKSEVRAKFKFSILNAKGEETKAMESQRAYRFVQGKDWGFKKFIRRDFLLDEANGLLPDDKLTLFCEVSVVQDSVNISGQNTMNMVKVPECRLADELGGLWENSRFTDCCLCVAGQEFQAHKAILAARSPVFSAMFEHEMEESKKNRVEINDVEPEVFKEMMCFIYTGKAPNLDKMADDLLAAADKYALERLKVMCEDALCSNLSVENAAEILILADLHSADQLKTQAVDFINYHASDVLETSGWKSMVVSHPHLVAEAYRSLASAQCPFLGPPRKRLKQS [Y87C] | with no effect

Variants of: B3
Details: with e2f7_human E2F7, Q96AV8

Row | Variant | effect of a mutation on the interaction
7 | MSRVPSPPPPAEMSSGPVAESWCYTQIKVVKFSYMWTINNFSFCREEMGEVIKSSTFSSGANDKLKWCLRVNPKGLDEESKDYLSLYLLLVSCPKSEVRAKCKFSILNAKGEETKAMESQRAYRFVQGKDWGFKKFIRRDFLLDEANGLLPDDKLTLFCEVSVVQDSVNISGQNTMNMVKVPECRLADELGGLWENSRFTDCCLCVAGQEFQAHKAILAARSPVFSAMFEHEMEESKKNRVEINDVEPEVFKEMMCFIYTGKAPNLDKMADDLLAAADKYALERLKVMCEDALCSNLSVENAAEILILADLHSADQLKTQAVDFINYHASDVLETSGWKSMVVSHPHLVAEAYRSLASAQCPFLGPPRKRLKQS [F102C] | with no effect

Variants of: B3
Details: with e2f7_human E2F7, Q96AV8
Remark: another data set of the same source

Row | Variant | effect of a mutation on the interaction
8 | MSRVPSPPPPAEMSSGPVAESWCYTQIKVVKFSYMWTINNFSFCREEMGEVIKSSTFSSGANDKLKWCLRVNPKGLDEESKDYLSLYLLLVSCPKSEVRAKFKFSILNAKGEETKAMESQRAYRFVQGKDWGLKKFIRRDFLLDEANGLLPDDKLTLFCEVSVVQDSVNISGQNTMNMVKVPECRLADELGGLWENSRFTDCCLCVAGQEFQAHKAILAARSPVFSAMFEHEMEESKKNRVEINDVEPEVFKEMMCFIYTGKAPNLDKMADDLLAAADKYALERLKVMCEDALCSNLSVENAAEILILADLHSADQLKTQAVDFINYHASDVLETSGWKSMVVSHPHLVAEAYRSLASAQCPFLGPPRKRLKQS [F133L] | with no effect
